Assay results reported in US20230203142A1, “TREATMENT OF METABOLIC DISORDERS THROUGH THE TARGETING OF A NOVEL CIRCULATING HORMONE COMPLEX” (The President and Fellows of Harvard College, priority 2020, published 2023).

What was measured:
[1] = system: diet-induced obese (DIO) mice; experiment: a-Ab treatment of diet-induced obese mice; type: in vivo, mouse
Description: Given the essential role for appropriate beta cell function and insulin secretion in the pathogenesis of diabetes, the pancreata of FABP4 deficient (FABP4^−/−) mice were examined for beta cell mass and insulin content. Animal care and experimental procedures were performed with approval from animal care committees of Harvard University. All mice were housed on a 12-hour light/dark cycle with ad libitum access to chow (PicoLab 5058 LabDiet) and water. FABP4−/− and WT mice were littermates obtained from heterozygous breeding. High fat diet (HFD) fed mice were provided ad libitum access to HFD (60% kcal from fat; Research Diets Inc., D12492i) for 14 weeks beginning at 4 weeks of age. Pancreata and isolated islets were obtained from 7-8-week-old male mice. Blood was collected every other week for 6 hour fasting plasma insulin and FABP4 levels. For acute FABP4 treatment, 10 μg of human recombinant FABP4 (produced in-house) or sterile PBS was injected intraperitoneally. Blood was collected from the tail vein at 0, 10, 20, 30, 60, 120, 240- and 360-minutes post injection for measurement of blood glucose, plasma insulin, and FABP4 levels.
(§1) For the immunohistochemistry, pancreata were dissected and fixed in 10% zinc buffered formalin for 24-48 hrs before being washed and stored in 70% ethanol. Samples were paraffin embedded, and sectioned in steps 250 μm apart. Immunostaining for insulin and glucagon was performed as described previously (Prentice et al., 2014; Rezania et al., 2014). Images of each section were acquired using Aperio Imagescope at 20× magnification. The beta- or alpha-cell area was calculated by using positive pixel count analysis (Aperio ImageScope). Islet number and size was determined by manually circling insulin positive clusters in the Aperio ImageScope software. Two blinded individuals independently performed manual analysis and insulitis scoring.
Antibodies were stored at 4° c. at a stock concentration of 10 mg/ml in PBS. WT diet-induced obese (DIO) male mice were treated twice weekly with 33 mg/kg bodyweight of a-Ab or control antibody (c-Ab) in a final volume of 150 μl, injected subcutaneously for 3 weeks after 12 weeks of high fat breeding, as described (see US20160319003, incorporated herein by reference, and Burak et al., 2015). […] Glucose tolerance test were performed as previously described (Liu, Y. et al. Cell Rep 14, 2889-2900). Briefly, both chow and high fat diet fed mice were evaluated simultaneously. Before intraperitoneal glucose tolerance tests, mice were fasted 16 hr. overnight, before injection of 0.75 g/kg body weight of glucose. Blood glucose was evaluated at 0, 15, 30, 45, 60, 90, and 120-min post-injection.
as §1, with “Pancreata were” for “For the immunohistochemistry, pancreata were”, “for insulin, glucagon, BrdU” for “for insulin”, “and Cleaved Caspase 3” for “and glucagon”

non-diabetic NOD mice = experiment: Immune phenotyping (FACS) of tissues of treated NOD mice; type: in vivo, mouse; conditions: mean
Description: To perform immune phenotyping, mice were euthanized with CO2 and cardiac perfusion performed with 40 ml of sterile PBS. Whole pancreas, pancreatic lymph nodes (PLN), inguinal lymph nodes (ILN), and spleen were harvested, diced into 1 mm pieces, placed in digestion buffer (RPMI 1640, lmg/ml Collagenase Type IV, 10 U/ml DNAsel, and 1% BSA), and incubated at 37° C. for 20 min shaking at 250 rpm. Pancreas samples were filtered through a 40 μm nylon strainer into a fresh 50 ml tube, and fresh media added up to 40 ml (RPMI 1640, 1% FBS, 1% Sodium Pyruvate, 1.56 ul β-mercaptoethanol). Tubes were then centrifuged at 1500 rpm for 10 min, supernatant removed, and cells resuspended in 2 ml fresh media. Resuspended cells were passed through a 40 μm nylon filter into a 15 ml round-bottomed polystyrene tube. For PLN, ILN, and spleen, digestion samples were filtered through a 40 μm nylon strainer into a 15 ml round bottom polystyrene tube, and lml of media was added. Spleen samples had supernatant removed, and lml ACK lysis buffer (Thermo Scientific A1049201) added for 2 min at room temperature. Samples were then centrifuged at 1500 rpm for 5 min, and resuspended in 1 ml media. All samples were centrifuged at 1500 rpm for 5 min, supernatant removed, and cells resuspended in FACS buffer (5% BSA in cold PBS; 0.5 ml for PLN and ILN, lml for pancreas and spleen). Staining and FACS analysis were performed as previously described (Engin et al., 2013).

B1: a-Ab: monoclonal antibody previously reported as CA33; heavy chain SEQ ID NO 446, light chain SEQ ID NO 447; binds FABP4 and NDPK (antibody, listed as Homo sapiens)
heavy: QSVEESGGRLVTPGTPLTLTCTVSGFSLSTYYMSWVRQAPGKGLEWIGIIYPSGSTYCASWAKGRFTISKASTTVDLKITSPTTEDTATYFCARPDNDGTSGYLSGFGLWGQGLVTVSSAKTTPPSVYPLAPGSAAQTNSMVTLGCLVKGYFPEPVTVTWNSGSLSSGVHTFPAVLQSDLYTLSSSVTVPSSTWPSETVTCNVAHPASSTKVDKKIVPRDC
light: DVVMTQTPASVSEPVGGTVTIKCGASEDISRYLVWYQQKPGQPPKRLIYKASTLASGVPSRFKGSGSGTDFTLTISDLECDDAATYYCQCTYGTYAGSFFYSFGGGTEVVVERTDAAPTVSIFPPSSEQLTSGGASVVCFLNNFYPKDINVKWKIDGSERQNGVLNSWTDQDSKDCTYSMSSTLTLTKDEYERHNSYTCEATHKTSTSPIVKSFNRNEC
beta cell proliferation, Ki67 staining ([1]; DIO model, three weeks): small but significant increase | CC3 positive beta cells ([1]; DIO model, vs controls): profound reduction | glycemic excursion during glucose tolerance test (GTT) ([1]; WT DIO mice, 33 mg/kg twice weekly s.c.): improved | 6 hr fasting glucose levels ([1]; WT DIO mice, 33 mg/kg twice weekly s.c., three weeks): reduced | beta cell mass ([1]; pancreata of DIO mice, 3 weeks): trend towards increased | number of islets ([1]; pancreata of DIO mice, 3 weeks): increased | glucagon positive area ([1]; pancreatic sections, DIO mice): significant reduction | ILN Cytotoxic T-Cells (non-diabetic NOD mice; inguinal lymph nodes): 21.4% | Spleen Cytotoxic T-Cells (non-diabetic NOD mice): 11.5% | PLN Cytotoxic T-Cells (non-diabetic NOD mice; pancreatic lymph nodes): 15.7%
